The test system of this series is Saccharomyces cerevisiae PS128 hsf1 delta, HSF1(1-493) fusion. Kind of series: growth estimate (transactivation domain function in HSF1 fusion, heat-shock survival) (a.u. (slope of normalised read count over time)); higher = stronger growth at 37°C, i.e. more transactivation activity. Conditions: library: design library. In short, it runs like this:
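Designed transactivation-domain oligos were fused to truncated yeast HSF1 (amino acids 1–493) and expressed in an hsf1-deleted yeast strain. Cells were replica-plated onto –trp 5-FOA plates and incubated at 30°C or 37°C for 0, 2, 4, 6 and 8 days. Inserts were PCR-amplified and Illumina MiSeq-sequenced as six barcoded replicates from one experiment. Growth estimate is the slope of a robust linear fit over time of read counts normalised to sample totals and starting count.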

Turning to QQNGGIAQLWDFN, the growth estimate is -0.189.

With QQNGKIAQLWDFN, the growth estimate is -0.237. For the sequence QQNGRIAQLWDFN, the growth estimate is -0.248. For QQNKEIAQLWDFN, the growth estimate is -0.241. As for QQNPEIAQLWDFN, the growth estimate is -0.234. Then QQNREIAQLWDFN, with less than -0.25; and QQPGEIAQLWDFN, with -0.242; and QQRGEIAQLWDFN, with less than -0.25.

With RADDIWEELLSEDL, the growth estimate was 0.445. Turning to RDDDEFSLWDSML, the growth estimate was 0.648. Then RDLYSILWSDVY, with -0.248. Under RFDLDMLGDFDLDMLG stands 0.634. Under RFDYDFLFGNDFA stands 2.62; under RFNDLLDLDFILSN, -0.133. As for RFPDTQDDFLKWWRSEEAQ, the growth estimate is -0.221.

On to RLDESWDYIFETTE, for which the growth estimate is -0.191.

RMDDVYNYLFDD: the growth estimate was -0.0132. Then RQNGEIAQLWDFN, with less than -0.25. Consider TADDVYNYLFDD, for which the growth estimate is 0.0678.

As to TGDDVYNYLFDD, the growth estimate is -0.0152.

Turning to TKDDVYNYLFDD, the growth estimate was -0.238. As for TMADVYNYLFDD, the growth estimate was 0.169. Then TMDAVYNYLFDD, with 0.158. For TMDDAYNYLFDD, the growth estimate is -0.228. For the sequence TMDDGYNYLFDD, the growth estimate is less than -0.25.

For TMDDPYNYLFDD, the growth estimate is -0.0775.

For the sequence TMDDRYNYLFDD, the growth estimate is -0.144. Under TMDDVGNYLFDD stands less than -0.25; under TMDDVKNYLFDD, less than -0.25. On to TMDDVPNYLFDD, for which the growth estimate is -0.232. Regarding TMDDVRNYLFDD, the growth estimate was less than -0.25. Regarding TMDDVYAYLFDD, the growth estimate was 4.4. On to TMDDVYGYLFDD, for which the growth estimate is 0.586.

TMDDVYKYLFDD: the growth estimate was 0.872. For TMDDVYNGLFDD, the growth estimate is less than -0.25. Turning to TMDDVYNKLFDD, the growth estimate was less than -0.25.

TMDDVYNPLFDD: the growth estimate is less than -0.25. TMDDVYNRLFDD: the growth estimate is -0.242. Then TMDDVYNYKFDD, with less than -0.25.

As to TMDDVYNYLADD, the growth estimate was 0.274. As for TMDDVYNYLFAD, the growth estimate was 1.32.

With TMDDVYNYLFDA, the growth estimate is 0.681. TMDDVYNYLFDG: the growth estimate is 0.0766. With TMDDVYNYLFDK, the growth estimate was -0.18. Turning to TMDDVYNYLFDP, the growth estimate was 1.58.

In the case of TMDDVYNYLFDR, the growth estimate was -0.243. Under TMDDVYNYLFGD stands 1.05; under TMDDVYNYLFKD, less than -0.25. For TMDDVYNYLFPD, the growth estimate is 1.69. Under TMDDVYNYLFRD stands -0.0803; under TMDDVYNYLGDD, -0.149.

Consider TMDDVYNYLKDD, for which the growth estimate is less than -0.25. TMDDVYNYLPDD: the growth estimate was less than -0.25. As to TMDDVYNYLRDD, the growth estimate was less than -0.25. Then TMDDVYNYRFDD, with -0.0969. For the sequence TMDDVYPYLFDD, the growth estimate was 0.27. Under TMDDVYRYLFDD stands 1.71; under TMGDVYNYLFDD, 0.113. Under TMKDVYNYLFDD stands less than -0.25. In the case of TMPDVYNYLFDD, the growth estimate is -0.0795.

Turning to TPDDVYNYLFDD, the growth estimate is less than -0.25. Then TRDDVYNYLFDD, with -0.222; and VAADIWEELLSEDL, with 1.83; and VADAIWEELLSEDL, with 0.167. As for VADDAWEELLSEDL, the growth estimate is -0.24.

With VADDGWEELLSEDL, the growth estimate is less than -0.259. For VADDIAEELLSEDL, the growth estimate is -0.224.

VADDIPEELLSEDL: the growth estimate is -0.228. Under VADDIWAELLSEDL stands 8.23; under VADDIWEALLSEDL, 8.8; under VADDIWEEALSEDL, -0.233.

Regarding VADDIWEEKLSEDL, the growth estimate was less than -0.25. As to VADDIWEELASEDL, the growth estimate was less than -0.25. Turning to VADDIWEELGSEDL, the growth estimate was -0.221. On to VADDIWEELKSEDL, for which the growth estimate is -0.188.

As to VADDIWEELLAEDL, the growth estimate was 2.64. VADDIWEELLGEDL: the growth estimate is 2.11. For the sequence VADDIWEELLKEDL, the growth estimate is 7.64. With VADDIWEELLPEDL, the growth estimate was -0.022. With VADDIWEELLREDL, the growth estimate was 10.8. On to VADDIWEELLSADL, for which the growth estimate was 3.11.

In the case of VADDIWEELLSEAL, the growth estimate was 5.63. Consider VADDIWEELLSEDA, for which the growth estimate is -0.0522.

Consider VADDIWEELLSEDG, for which the growth estimate was 0.0334. On to VADDIWEELLSEDK, for which the growth estimate is -0.0473.

Regarding VADDIWEELLSEDL, the growth estimate was 0.661. Turning to VADDIWEELLSEDP, the growth estimate was 0.229.

Regarding VADDIWEELLSEDR, the growth estimate is 0.315. Take VADDIWEELLSEGL: the growth estimate is 10.4. In the case of VADDIWEELLSEKL, the growth estimate is 3.04. As to VADDIWEELLSEPL, the growth estimate is 5.18.

Consider VADDIWEELLSERL, for which the growth estimate is 5.09. As for VADDIWEELLSGDL, the growth estimate was 3.96. As to VADDIWEELLSKDL, the growth estimate is 2.92. In the case of VADDIWEELLSPDL, the growth estimate was 0.482. With VADDIWEELLSRDL, the growth estimate is 6.53.

For VADDIWEELPSEDL, the growth estimate was less than -0.25. In the case of VADDIWEELRSEDL, the growth estimate was -0.205.

For VADDIWEERLSEDL, the growth estimate is less than -0.25. Under VADDIWEGLLSEDL stands 0.676; under VADDIWEKLLSEDL, 2.03. Take VADDIWEPLLSEDL: the growth estimate was -0.234. On to VADDIWERLLSEDL, for which the growth estimate is 2.04.

With VADDIWKELLSEDL, the growth estimate was 3.97.

As to VADDIWPELLSEDL, the growth estimate was 0.612. Consider VADDIWRELLSEDL, for which the growth estimate is 7.56. For the sequence VADDKWEELLSEDL, the growth estimate is -0.236.

For the sequence VADDPWEELLSEDL, the growth estimate was -0.214. Consider VADDRWEELLSEDL, for which the growth estimate was less than -0.25. As for VADGIWEELLSEDL, the growth estimate is -0.0444. Take VADKIWEELLSEDL: the growth estimate was -0.0109. As for VADPIWEELLSEDL, the growth estimate is 0.903. As for VADRIWEELLSEDL, the growth estimate is -0.176. Consider VAGDIWEELLSEDL, for which the growth estimate was 0.447. Then VAKDIWEELLSEDL, with 6.26; and VAPDIWEELLSEDL, with 3.05.

Take VARDIWEELLSEDL: the growth estimate was 2.59. Take VGDDIWEELLSEDL: the growth estimate was 1.59.

As for VKDDIWEELLSEDL, the growth estimate is -0.23. On to VRDDIWEELLSEDL, for which the growth estimate was 0.609.

Values taken from the supplement of paper PMC5949888.
